Experimental data: the supplement of paper PMC9170038

Test system: MS2 coat protein
Experiment: apparent KD of MS2 coat protein; designed switch direction (-1 OFF switch, 1 ON switch): -1; higher = weaker reporter binding
Outline: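 On Illumina chips, designed RNA switches with common flanks were made by stalled E. coli RNA polymerase. Titrations with SNAP-549-labelled MS2 coat protein, doubling from 0.7 or 1.5 nM to 3 µM, were done with no input, with 200 uM small-molecule ligand, or with an oligonucleotide input. Apparent KD is the median per design over clusters, from curve fits of normalised cluster fluorescence.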

[1] = Eterna round: R95, input ligand: FMN 200 uM
[2] = Eterna round: R95, input ligand: microRNA oligo, concentration not stated
[3] = Eterna round: R95, input ligand: none
[4] = input ligand: microRNA oligo, concentration not stated

Sequence | apparent KD of MS2 coat protein [1] | apparent KD of MS2 coat protein [2] | apparent KD of MS2 coat protein [3] | apparent KD of MS2 coat protein (input ligand: FMN 200 uM) | apparent KD of MS2 coat protein (input ligand: none) | apparent KD of MS2 coat protein [4]
UUUAAUUUUUUUUUUUUACAAGCUUUUUGCUCGUCUUAUACAUGAGGAUCACCCAUGUGGGUAGAAAGUAAAUUAUC [JMF 46] (puzzle: Sensor v3, turn-off variant 2) | 13.7 nM | 43.6 nM | 15.4 nM |  |  | 
GGUCUACAUGAGGAUCACCCAUGUCAGGAUAUCGUGUGUUUUUUUUCGGCCGCGCGUGCGAGAAGGGACGUCUU (puzzle: Exclusion 1) |  | 16.6 nM |  |  |  | 
CAGUACUGAGGAUAUACAUGAGGAUCACCCAUGUGAGCGAUACUAGUGAGGUCGAUUAGUAGAAGGCAGUACUG [Mat X3R4 m33] (Eterna round: R97, puzzle: Exclusion 3) |  |  |  | 353 nM | 32 nM | 
GGUCCACAUGAGGAUCACCCAUGUUAGGAUAUCUCCCGCCUCCUCACUGGAGACGGACAGAGAAGGAACAUCAA [Vetibele] (Eterna round: R96, puzzle: Exclusion 1) |  |  |  | 104 nM | 24.3 nM | 20.5 nM
UUUUUAUAUGAAGGAUAUACUUAACAUGAGGAUCACCCAUGUGGUGUUGUGAGUGAGUGAGUUUAGUAGAAGGUCAAGUAUUAU [JMF's solution 38] (Eterna round: R96, puzzle: Exclusion NG 2) |  |  |  | 776 nM | 464 nM | 265 nM
CUAAAUCAUGUAGGAUAUGCGUGGCGAAGCUAUGCAGAAGGACAUGAGGAUCACCCAUGUCUUUCCGUCUGAGUACAGACGGGA [Mat - Exclusion NG 1 - Mod of JL - D45] (Eterna round: R96, puzzle: Exclusion NG 1) |  |  |  | 155 nM | 18 nM | 16.4 nM
AUCAGCUCGUGAGGAUAUAUAUAUACAUGAGGAUCACCCAUGUUAGAUCAGCUUCGGCAGUAUAUAUAGAAGGCACGAGCUGAU [ENG2/15-A2] (Eterna round: R96, puzzle: Exclusion NG 2) |  |  |  | 233 nM | 79.6 nM | 90.6 nM
CAAUAGUGAGGAUAUCUGAUCACACCAUGAAGAAGGAGUGUAGAGAAGGCACAUGAGGAUCACCCAUGUCCCGU [Eternabot (L2) Solution 43] (Eterna round: R97, puzzle: Exclusion 4) |  |  |  | 37 nM | 23.9 nM | 
ACAAGCAUUUAGUAAAUGGACAUGAGGAUCACCCAUGUGAGUCCGAAGAGAUAAGAUAUAUUGUCGGCUCGUCUUAU [AK-miRNA-r3-22] (Eterna round: R97, puzzle: Sensor, turn-off variant 1) |  |  |  | 55.9 nM | 94.8 nM | 
AAAGGAUGCCUAGGAUAUUGACUAAGAAAGGAUUAAGAAGGAGGAAAUAUAUGAGGGAUCCACAUGAGGAUCACCCAUGUACAC [Xesousbege] (Eterna round: R96, puzzle: Exclusion NG 1) |  |  |  | 769 nM | 607 nM | 315 nM
ACCUCUUGAGGAUAUACAUGAGGAUCACCCAUGUUCCUUAAUAAAAUAGUUAUAUCGUGUAGAAGGUGGGAGGC [Eternabot (L2) Solution 42] (Eterna round: R97, puzzle: Exclusion 3) |  |  |  | 11.4 nM | 69 nM | 
GAUUAACAUGAGGAUCACCCAUGUGAGGAUAUGGACUGGCUCACUUUUCGAUUCCCGUCUAGAAGGCACAUCUU [1986#10] (Eterna round: R97, puzzle: Exclusion 1) |  |  |  | 85.9 nM | 41.1 nM | 
AGAAAUGCCCAUGGCCACAAGCUUUUUGCUUGCCUUACCACAUGAGGAUCACCCAUGUGACAUGGGCUCCUUAUAAU [Teoredale] (puzzle: Sensor v3, turn-off variant 2) | 15.3 nM | 13.1 nM | 14 nM |  |  | 
ACAUGAGGAUCACCCAUGUCAGGCGGGUCCACUCCGGCUGUUGAGGAUAUAGUUCGGUAUCCGCGCUAGAAGGUGAGGGCCGGC [Aenatbe mod 22] (Eterna round: R96, puzzle: Exclusion NG 3) |  |  |  | 16 nM | 18.2 nM | 15.3 nM
AAAUAUAAGCAAAGAUCCUACAUGAGGAUCACCCAUGUGCUCGUCUUAUAAAGUACUAUCACGAAAGUGAUAGUACA [Sensor 3, v1 - 19] (puzzle: Sensor v3, turn-off variant 1) | 117 nM | 49 nM | 215 nM |  |  | 
